# Assay results published in patent publication US11260115B1, “Peptides and combination of peptides for use in immunotherapy against CLL and other cancers” (immatics biotechnologies GmbH, priority 2015, dated 2022).
# Target: HLA-A*02:01 (Homo sapiens, UniProt P04439, D140Y/D185E/D98H/E176V/E277Q/G131W/G231S/I119V/I121R/I166T/I218V/L300P/L318F/N151K/N90K/P208A/P217A/Q86G/Q94H/R138H/R169H/T345S)
# Experiment: MHC binding assay (UV-ligand exchange, β2m ELISA, peptide exchange yield)
# Details: binding to HLA-A*02:01
# Source text: Candidate peptides for T cell based therapies according to the present invention were further tested for their MHC binding capacity (affinity). The individual peptide-MHC complexes were produced by UV-ligand exchange, where a UV-sensitive peptide is cleaved upon UV-irradiation, and exchanged with the peptide of interest as analyzed. Only peptide candidates that can effectively bind and stabilize the peptide-receptive MHC molecules prevent dissociation of the MHC complexes. To determine the yield of the exchange reaction, an ELISA was performed based on the detection of the light chain (β2m) of stabilized MHC complexes. The assay was performed as generally described in Rodenko et al. (Rodenko et al., 2006).
# 96 well MAXISorp plates (NUNC) were coated over night with 2 ug/ml streptavidin in PBS at room temperature, washed 4× and blocked for 1 h at 37° C. in 2% BSA containing blocking buffer. Refolded HLA-A*02:01/MLA-001 monomers served as standards, covering the range of 15-500 ng/ml. Peptide-MHC monomers of the UV-exchange reaction were diluted 100 fold in blocking buffer. Samples were incubated for 1 h at 37° C., washed four times, incubated with 2 ug/ml HRP conjugated anti-β2m for 1 h at 37° C., washed again and detected with TMB solution that is stopped with […]. Absorption was measured at 450 nm. Candidate peptides that show a high exchange yield (preferably higher than 50%, most preferred higher than 75%) are generally preferred for a generation and production of antibodies or fragments thereof, and/or T cell receptors or fragments thereof, as they show sufficient avidity to the MHC molecules and prevent dissociation of the MHC complexes.
# Table 11: MHC class I binding scores. Binding of HLA-class I restricted peptides to HLA-A*02:01 was ranged by peptide exchange yield: ≥10%=+; ≥20%=++; ≥50=+++; ≥75%=++++
row,Substance,"Peptide Exchange (MHC class I binding score, peptide exchange yield)"
1,59 (FVFGDENGTVSL; listed as Homo sapiens) [compound 59],“+++” (>50 = +++)
2,60 (FVLDHEDGLNL; listed as Homo sapiens) [compound 60],“+++” (>50 = +++)
3,61 (FVYFIVREV; listed as Homo sapiens) [compound 61],“+++” (>50 = +++)
4,62 (GIIDGSPRL; listed as Homo sapiens) [compound 62],“+++” (>50 = +++)
5,63 (SLAHVAGCEL; listed as Homo sapiens) [compound 63],“+++” (>50 = +++)
6,64 (KLLESVASA; listed as Homo sapiens) [compound 64],“+++” (>50 = +++)
7,65 (GLDDMKANL; listed as Homo sapiens) [compound 65],“++” (>20% = ++)
8,66 (SLAGGLDDMKA; listed as Homo sapiens) [compound 66],“+++” (>50 = +++)
9,67 (GLDDVTVEV; listed as Homo sapiens) [compound 67],“++” (>20% = ++)
10,68 (GLDQQFAGLDL; listed as Homo sapiens) [compound 68],“+” (>10% = +)
11,70 (FVPDTPVGV; listed as Homo sapiens) [compound 70],“+++” (>50 = +++)
12,71 (GLKHDIARV; listed as Homo sapiens) [compound 71],“+++” (>50 = +++)
13,72 (GLLDAGKMYV; listed as Homo sapiens) [compound 72],“+++” (>50 = +++)
14,73 (GLLEVISALQL; listed as Homo sapiens) [compound 73],“+++” (>50 = +++)
15,74 (GLLRASFLL; listed as Homo sapiens) [compound 74],“++” (>20% = ++)
16,75 (GLSIFAQDLRL; listed as Homo sapiens) [compound 75],“++” (>20% = ++)
17,76 (GLLRIIPYL; listed as Homo sapiens) [compound 76],“+++” (>50 = +++)
18,78 (GLPSFLTEV; listed as Homo sapiens) [compound 78],“+++” (>50 = +++)
19,79 (GLQAKIQEA; listed as Homo sapiens) [compound 79],“+++” (>50 = +++)
20,80 (VLIEDELEEL; listed as Homo sapiens) [compound 80],“++” (>20% = ++)
21,82 (GLQSGVDIGV; listed as Homo sapiens) [compound 82],“+++” (>50 = +++)
22,83 (GQGEVLVYV; listed as Homo sapiens) [compound 83],“+++” (>50 = +++)
23,84 (GVMDVNTAL; listed as Homo sapiens) [compound 84],“++” (>20% = ++)
24,85 (HLMLHTAAL; listed as Homo sapiens) [compound 85],“++++” (>75% = ++++)
25,87 (HQIEAVDGEEL; listed as Homo sapiens) [compound 87],“++” (>20% = ++)
26,88 (ILDEIGADVQA; listed as Homo sapiens) [compound 88],“+++” (>50 = +++)

row,Substance,"Peptide Exchange (MHC class I binding score, peptide exchange yield)"
1,89 (ILDFGTFQL; listed as Homo sapiens) [compound 89],“+++” (>50 = +++)
2,90 (VIADLGLIRV; listed as Homo sapiens) [compound 90],“+++” (>50 = +++)
3,91 (ILDLNTYNV; listed as Homo sapiens) [compound 91],“+++” (>50 = +++)
4,92 (ILEPLNPLL; listed as Homo sapiens) [compound 92],“+++” (>50 = +++)
5,93 (ILFNTQINI; listed as Homo sapiens) [compound 93],“+++” (>50 = +++)
6,94 (ILFPLRFTL; listed as Homo sapiens) [compound 94],“+++” (>50 = +++)
7,95 (ILGYMAHEHKV; listed as Homo sapiens) [compound 95],“++” (>20% = ++)
8,97 (LLFATQITL; listed as Homo sapiens) [compound 97],“++” (>20% = ++)
9,98 (SLIKYFLFV; listed as Homo sapiens) [compound 98],“+” (>10% = +)
10,99 (ILIFHSVAL; listed as Homo sapiens) [compound 99],“+++” (>50 = +++)
11,100 (ILNNEVFAI; listed as Homo sapiens) [compound 100],“+++” (>50 = +++)
12,103 (KLGGTPAPA; listed as Homo sapiens) [compound 103],“++” (>20% = ++)
13,104 (KLILLDTPLFL; listed as Homo sapiens) [compound 104],“+++” (>50 = +++)
14,105 (KLMNDIADI; listed as Homo sapiens) [compound 105],“++” (>20% = ++)
15,106 (FMASHLDYL; listed as Homo sapiens) [compound 106],“+++” (>50 = +++)
16,107 (ILYNLYDLL; listed as Homo sapiens) [compound 107],“+++” (>50 = +++)
17,108 (VIYTLIHYI; listed as Homo sapiens) [compound 108],“+++” (>50 = +++)
18,109 (KLWEGLTELV; listed as Homo sapiens) [compound 109],“+++” (>50 = +++)
19,110 (LLFDHLEPMEL; listed as Homo sapiens) [compound 110],“+++” (>50 = +++)
20,111 (KLWNVAAPLYL; listed as Homo sapiens) [compound 111],“+++” (>50 = +++)
21,113 (KVPAEEVLVAV; listed as Homo sapiens) [compound 113],“+++” (>50 = +++)
22,115 (LLFDKLYLL; listed as Homo sapiens) [compound 115],“+++” (>50 = +++)
23,116 (LLIGATMQV; listed as Homo sapiens) [compound 116],“+++” (>50 = +++)
24,117 (LLILENILL; listed as Homo sapiens) [compound 117],“+++” (>50 = +++)
25,118 (RLLILENILL; listed as Homo sapiens) [compound 118],“+++” (>50 = +++)
